{"source": "paper PMC11062913", "about": "“Structural basis of Integrator-dependent RNA polymerase II termination” (Nature, 2024)", "binders": {"B1": {"name": "NABP2 (natural protein, human, UniProt Q9BQ15-1 1-211, looked up)", "chain": "MTTETFVKDIKPGLKNLNLIFIVLETGRVTKTKDGHEVRTCKVADKTGSINISVWDDVGNLIQPGDIIRLTKGYASVFKGCLTLYTGRGGDLQKIGEFCMVYSEVPNFSEPNPEYSTQQAPNKAVQNDSNPSASQPTTGPSAASPASENQNGNGLSAPPGPGGGPHPPHTPSHPPSTRITRSQPNHTPAGPPGPSSNPVSNGKETRRSSKR", "notes": "Treated with lambda protein phosphatase during purification; also called SOSS factor NABP2"}}, "biological_target": "T1, Integrator subunit INTS11(E203Q) (human, UniProt Q5TA45 1-600, E203Q)", "T1 construct": "INTS11, human; endonuclease subunit of the Integrator cleavage module; E203Q mutant with reduced catalytic activity used in all complexes for cryo-EM and XL-MS; Stood in the assays as a subunit of the Integrator–PP2A complex; also called INTS11(E203Q) mutant", "assay": "cross-linking; XL-MS of the PEC–Integrator–PP2A–SOSS complex (mixed population of pre- and post-termination complexes): pooled glycerol-gradient peak fractions, 3 mM BS3, 30 min, 30 °C", "conditions": "both partners purified", "data": [{"binder": "B1", "values": [{"measurement": "binding result", "result": "binds"}]}]}
